Measured values published in patent publication US20110263454A1, “Methods of Identifying Functional Characteristics of Promoters, Transcription Modifying Proteins and Transcription Modulating Agents” (Salk Institute for Biological Studies, priority 2008, published 2011).

B1: ERR2: Estrogen Related Receptor β (NR3B2, ERRb), cDNA driver (protein, UniProt O95718 1-433, looked up)
Steroid hormone receptor ERR2: MSSDDRHLGSSCGSFIKTEPSSPSSGIDALSHHSPSGSSDASGGFGLALGTHANGLDSPPMFAGAGLGGTPCRKSYEDCASGIMEDSAIKCEYMLNAIPKRLCLVCGDIASGYHYGVASCEACKAFFKRTIQGNIEYSCPATNECEITKRRRKSCQACRFMKCLKVGMLKEGVRLDRVRGGRQKYKRRLDSESSPYLSLQISPPAKKPLTKIVSYLLVAEPDKLYAMPPPGMPEGDIKALTTLCDLADRELVVIIGWAKHIPGFSSLSLGDQMSLLQSAWMEILILGIVYRSLPYDDKLVYAEDYIMDEEHSRLAGLLELYRAILQLVRRYKKLKVEKEEFVTLKALALANSDSMYIEDLEAVQKLQDLLHEALQDYELSQRHEEPWRTGKLLLTLPLLRQTAAKAVQHFYSVKLQGKVPMHKLFLEMLEAKV
B2: CTF3: COUP-TF3 (NR2F6), cDNA driver (protein, UniProt P10588 1-404, looked up)
Nuclear receptor subfamily 2 …: MAMVTGGWGGPGGDTNGVDKAGGYPRAAEDDSASPPGAASDAEPGDEERPGLQVDCVVCGDKSSGKHYGVFTCEGCKSFFKRSIRRNLSYTCRSNRDCQIDQHHRNQCQYCRLKKCFRVGMRKEAVQRGRIPHSLPGAVAASSGSPPGSALAAVASGGDLFPGQPVSELIAQLLRAEPYPAAAGRFGAGGGAAGAVLGIDNVCELAARLLFSTVEWARHAPFFPELPVADQVALLRLSWSELFVLNAAQAALPLHTAPLLAAAGLHAAPMAAERAVAFMDQVRAFQEQVDKLGRLQVDSAEYGCLKAIALFTPDACGLSDPAHVESLQEKAQVALTEYVRAQYPSQPQRFGRLLLRLPALRAVPASLISQLFFMRLVGKTPIETLIRDMLLSGSTFNWPYGSGQ
B3: Erb: Estrogen Receptor β (NR3A2, ERb), cDNA driver (protein, UniProt Q92731 1-530, looked up)
Estrogen receptor beta: MDIKNSPSSLNSPSSYNCSQSILPLEHGSIYIPSSYVDSHHEYPAMTFYSPAVMNYSIPSNVTNLEGGPGRQTTSPNVLWPTPGHLSPLVVHRQLSHLYAEPQKSPWCEARSLEHTLPVNRETLKRKVSGNRCASPVTGPGSKRDAHFCAVCSDYASGYHYGVWSCEGCKAFFKRSIQGHNDYICPATNQCTIDKNRRKSCQACRLRKCYEVGMVKCGSRRERCGYRLVRRQRSADEQLHCAGKAKRSGGHAPRVRELLLDALSPEQLVLTLLEAEPPHVLISRPSAPFTEASMMMSLTKLADKELVHMISWAKKIPGFVELSLFDQVRLLESCWMEVLMMGLMWRSIDHPGKLIFAPDLVLDRDEGKCVEGILEIFDMLLATTSRFRELKLQHKEYLCVKAMILLNSSMYPLVTATQDADSSRKLAHLLNAVTDALVWVIAKSGISSQQQSMRLANLLMLLSHVRHASNKGMEHLLNMKCKNVVPVYDLLLEMLNAHVLRGCKSSITGSECSPAEDSKSKEGSQNPQSQ

How the values were obtained:
mUCP3 promoter = experiment: NHR-promoter luciferase screen, mUCP3 promoter; assay type: cell-based, mouse; settings: for Normalized Luc. act., normalized to control / Luc. act., normalized to lacZ: mUCP3 promoter reporter; for Normalized Luc. act., normalized to control: HR without or with its ligand, relative to control; for Luc. act., normalized to lacZ: hormone receptor (HR) without or with its ligand; for mUCP3 promoter reporter activity: transcription factor +/- ligand, control = 1.00
How it was run: (§1)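 CV-1 cells were co-transfected with 50 ng NHR (homodimer or NHR/RXR heterodimer), 100 ng promoter-luciferase construct and 50 ng LacZ. Luciferase was normalized to LacZ and to a no-NHR/no-ligand control.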

mUCP1 promoter = experiment: NHR-promoter luciferase screen, mUCP1 promoter; assay type: cell-based, mouse; settings: for Luc. act., normalized to lacZ / Normalized Luc. act., normalized to control: mUCP1 promoter reporter, co-transfected HR, with or without its ligand; for Normalized Luc. act., normalized to control: relative to control; for luciferase activity normalized to lacZ activity and to a control, mUCP!: mUCP! promoter-luciferase, CV-1 cells, NHR +/- ligand, control = 1.00
How it was run: as §1

mLeptin promoter = experiment: NHR-promoter luciferase screen, mLeptin promoter; assay type: cell-based, mouse; settings: for Luc. act., normalized to lacZ / Normalized Luc. act., normalized to control: Table 7, mLeptin; for Results of assays of transcription factor (+/- ligand) with mLeptin: Table 6d, luciferase activity relative to control (control = 1.00)
How it was run: as §1

hMDR1 promoter = experiment: NHR-promoter luciferase screen, hMDR1 promoter; assay type: cell-based, human; settings: for Luc. act., normalized to lacZ / Normalized Luc. act., normalized to control: MDR1 promoter, HR/ligand component; for hMDR1 promoter reporter activity: transcription factor +/- ligand, control = 1.00
How it was run: as §1

mPer1 promoter = experiment: NHR-promoter luciferase screen, mPer1 promoter; assay type: cell-based, mouse; settings: for Luc. act., normalized to lacZ / Normalized Luc. act., normalized to control: Per1 promoter reporter, co-transfected HR, with or without its ligand; for Normalized Luc. act., normalized to control: relative to control; for luciferase activity normalized to lacZ activity and to a control, mPer1: mPer1 promoter-luciferase, CV-1 cells, NHR +/- ligand, control = 1.00
How it was run: as §1

hTNFa promoter = experiment: NHR-promoter luciferase screen, hTNFa promoter; assay type: cell-based, human; settings: for Luc. act., normalized to lacZ / Normalized Luc. act., normalized to control: TNFa promoter, HR component without or with ligand; for hTNFa promoter reporter activity: transcription factor +/- ligand, control = 1.00
How it was run: as §1

Molecule	Normalized Luc. act., normalized to control (mUCP3 promoter)	Luc. act., normalized to lacZ (mUCP3 promoter)	mUCP3 promoter reporter activity (mUCP3 promoter)	Luc. act., normalized to lacZ (mUCP1 promoter)	Normalized Luc. act., normalized to control (mUCP1 promoter)	luciferase activity normalized to lacZ activity and to a control, mUCP! (mUCP1 promoter)	Luc. act., normalized to lacZ (mLeptin promoter)	Normalized Luc. act., normalized to control (mLeptin promoter)	Results of assays of transcription factor (+/- ligand) with mLeptin (mLeptin promoter)	luciferase/LacZ, mLeptin (selected results) (mLeptin promoter; mLeptin promoter-luciferase, NHR +/- ligand, control = 1.0)	Luc. act., normalized to lacZ (hMDR1 promoter)	Normalized Luc. act., normalized to control (hMDR1 promoter)	hMDR1 promoter reporter activity (hMDR1 promoter)	Luc. act., normalized to lacZ (mPer1 promoter)	Normalized Luc. act., normalized to control (mPer1 promoter)	luciferase activity normalized to lacZ activity and to a control, mPer1 (mPer1 promoter)	Luc. act., normalized to lacZ (hTNFa promoter)	Normalized Luc. act., normalized to control (hTNFa promoter)	hTNFa promoter reporter activity (hTNFa promoter)
B1	3.3	2.2	3.32	13.1	3.0	2.95	9.7	3.3	3.30	3.3	0.4	1.2	1.20	328.2	2.3	2.28	1655.6	1.7	1.68
B2	0.8	0.6	0.82	1.9	0.4	0.42	2.7	0.9	0.92	–	0.4	1.4	1.36	159.0	1.1	1.10	932.4	0.9	0.95
B3	1.3	0.9	1.28	3.3	0.8	0.75	2.5	0.9	0.86	–	0.3	1.1	1.06	79.1	0.5	0.55	811.5	0.8	0.83
